Key:
[1] = target: T1, ELAM-Rg, soluble ELAM-1-IgG1 chimera (ELAM-1 extracellular domain fused to hinge, CH2 and CH3 domains of … (human, UniProt P16581 22-556, limits assumed)); experiment: solid phase: α1-AGP adsorbed to wells, ELAM-Rg at 1 µg/ml, radioiodinated goat anti-human IgG, gamma counter
T1 construct: extracellular domain; Made in COS cells, recovered on protein A-agarose; appeared as disulfide-linked dimers; In adhesion assays it was captured on dishes coated with goat anti-human IgG; also called ELAM-1-Rg; ELAM-1-IgG1 fusion protein; not shown: human IgG1 hinge, CH2 and CH3 domains (genomic fragment of Aruffo et al., Cell 61:1303, 1990)
T1 sequence (looked up): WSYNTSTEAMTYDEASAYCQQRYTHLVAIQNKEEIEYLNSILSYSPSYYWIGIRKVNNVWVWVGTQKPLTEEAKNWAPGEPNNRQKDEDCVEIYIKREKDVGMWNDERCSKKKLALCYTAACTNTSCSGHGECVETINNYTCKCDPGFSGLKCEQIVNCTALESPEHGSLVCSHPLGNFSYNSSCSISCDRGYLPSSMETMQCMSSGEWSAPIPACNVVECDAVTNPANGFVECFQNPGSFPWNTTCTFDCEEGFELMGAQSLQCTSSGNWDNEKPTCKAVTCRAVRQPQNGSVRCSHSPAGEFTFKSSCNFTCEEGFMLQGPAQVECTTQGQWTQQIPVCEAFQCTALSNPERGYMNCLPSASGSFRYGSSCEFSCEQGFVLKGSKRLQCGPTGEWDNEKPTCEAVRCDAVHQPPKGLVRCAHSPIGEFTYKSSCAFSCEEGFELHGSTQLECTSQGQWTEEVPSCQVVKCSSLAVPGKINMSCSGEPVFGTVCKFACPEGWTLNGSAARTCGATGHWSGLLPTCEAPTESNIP
Description: Amniotic fluid fucosyltransferase was isolated by affinity chromatography and evaluated for its ability to convert α_1-AGP into an ELAM-1 ligand as follows. α(1,3) fucosyltransferase was isolated from concentrated amniotic fluid by fetuin-agarose chromatography as previously described in Hanisch et al. (*Carbohydr. Res.* 178:23, 1988) and Mitsakos et al. (*Biol. Chem. Hoppe-Seyler* 369:661, 1988). 0.8 μCi GDP^14C-fucose (225 Ci/mole) and 100 μg of bovine α_1-AGP (Sigma, St. Louis, Mo.) were added to a reaction mix containing 25 mM Tris-HCl pH 7.0, 35 mM MgCl_2 and 1 mM ATP in a final volume of 120 μl. The reaction was allowed to proceed for 24 h. at 37°, at which time approximately 10% of the ^14C-labeled fucose had been incorporated into TCA-insoluble material. Unincorporated label was removed by centrifugal ultrafiltration (Centricon 10, Amicon, Danvers, Mass.). 20 μl of a 1:5 dilution of the labelled material, or 10 μl of a 1:5 dilution of a similarly constituted reaction mixture lacking labelled GDP-fucose, was adsorbed to plastic dishes (as described above) or to 96 well microtiter plates (Falcon 3911, Becton Dickinson, Oxnard, Calif.). […] Following washing, labelled antibody binding was measured in a gamma counter. Results shown in FIG. 9 are expressed as the mean±standard deviation of quadruplicate determinations and are representative of two independent experiments.

[2] = target: native constant domain of human IgG1 coexpressed with fucosyltransferase (human, UniProt P01857-1 99-330 = IgG part); experiment: not described

B1: bovine α1-acid glycoprotein fucosylated in vitro with amniotic fluid α(1,3)fucosyltransferase and GDP-fucose (other, UniProt Q3SZR3 19-202, looked up)
chain: QSPECANLMTVAPITNATMDLLSGKWFYIGSAFRNPEYNKSARAIQAAFFYLEPRHAEDKLITREYQTIEDKCVYNCSFIKIYRQNGTLSKVESDREHFVDLLLSKHFRTFMLAASWNGTKNVGVSFYADKPEVTQEQKKEFLDVIKCIGIQESEIIYTDEKKDACGPLEKQHEEERKKETEAS
modifications: N-linked glycans fucosylated in vitro (sialyl-Le^X determinants)
notes: Adsorbed to plastic or to microtiter wells; also called in vitro-fucosylated α1-acid glycoprotein; enzymatically-fucosylated α1-AGP
Question: Does B1 bind [1]?
Answer: binds

B2: ELAM-1 (form in this assay not stated) (receptor, UniProt P16581 22-556, looked up)
chain: T1 sequence (looked up)
Question: Does B2 bind [2]?
Answer: no binding
